In PMC5451065:

What was measured:
[1] = target: cytochrome c oxidase (complex IV) (rat (endogenous in rat liver mitoplasts)); conditions: for Amax of the cytochrome c oxidase reaction, rat liver mitoplasts without cytochrome c: scale: μg atom of the oxygen/min per 1 mg of the protein
[2] = target: ubiquinol–cytochrome c reductase (complex III) (rat (endogenous in rat liver mitoplasts)); conditions: for Amax of the succinate:cytochrome c reductase reaction, rat liver mitoplasts without cytochrome c: scale: μmol of the cyt c /min × mg of the protein

Substance | Amax(mut)/Amax(wt) of the cytochrome c oxidase reaction [1] [%] | Km of the cytochrome c oxidase reaction, rat liver mitoplasts without cytochrome c [1] | Amax of the cytochrome c oxidase reaction, rat liver mitoplasts without cytochrome c [1] | Amax(mut)/Amax(wt) of the succinate:cytochrome c reductase reaction [2] [%] | Km of the succinate:cytochrome c reductase reaction, rat liver mitoplasts without cytochrome c [2] | Amax of the succinate:cytochrome c reductase reaction, rat liver mitoplasts without cytochrome c [2]
horse cytochrome c I81L/F82S/A83S/G84A (from UniProt P00004 1-105) (natural protein) | 92.1 | 5.77 μM of cyt c | 0.675 | 44.7 | 20.7 μM of cyt c | 0.055
horse cytochrome c I81Y/A83Y/G84N (from UniProt P00004 1-105) (natural protein) | 23.6 | 5 μM of cyt c | 0.173 | 13 | 24.7 μM of cyt c | 0.016
horse cytochrome c T78A/K79A/I81A/F82T/T89A (from UniProt P00004 1-105) (natural protein) | 92.3 | 5.31 μM of cyt c | 0.677 | 2.4 | 5.08 μM of cyt c | 0.003
horse cytochrome c T78N/K79Y/M80I/I81M/F82N (from UniProt P00004 1-105) (natural protein) | 38.6 | 4.96 μM of cyt c | 0.283 | 6.5 | 11 μM of cyt c | 0.008

The next lines start with the values.

Amax(mut)/Amax(wt) of the cytochrome c oxidase reaction [1] [%] | Km of the cytochrome c oxidase reaction, rat liver mitoplasts without cytochrome c [1] | Amax of the cytochrome c oxidase reaction, rat liver mitoplasts without cytochrome c [1] | Amax(mut)/Amax(wt) of the succinate:cytochrome c reductase reaction [2] [%] | Km of the succinate:cytochrome c reductase reaction, rat liver mitoplasts without cytochrome c [2] | Amax of the succinate:cytochrome c reductase reaction, rat liver mitoplasts without cytochrome c [2] | Substance
86.7 | 6.47 μM of cyt c | 0.636 | 19.5 | 20.7 μM of cyt c | 0.024 | horse cytochrome c I75G/G77R/T78I (from UniProt P00004 1-105) (natural protein)
97.8 | 6.19 μM of cyt c | 0.717 | 8.1 | 1.24 μM of cyt c | 0.01 | horse cytochrome c K79V/I81L/F82R (from UniProt P00004 1-105) (natural protein)
61.8 | 5.31 μM of cyt c | 0.453 | 3.2 | 8.94 μM of cyt c | 0.004 | horse cytochrome c T78A/K79A/I81A/F82T (from UniProt P00004 1-105) (natural protein)
47.5 | 5.04 μM of cyt c | 0.348 | 3.2 | 17.4 μM of cyt c | 0.004 | horse cytochrome c T78S/K79P (from UniProt P00004 1-105) (natural protein)
– | 5.4 μM of cyt c | 0.733 | – | 20.9 μM of cyt c | 0.123 | wild-type horse cytochrome c (from UniProt P00004 1-105) (natural protein)
